One molecule from US20220380436A1 (BOARD OF TRUSTEES OF THE UNIVERSITY OF ILLINOIS, published 2022) can be followed below.

The target of this test is T1, human PDGFRβ isoform 1, myc-tagged, expressed on Expi293F cells (human, UniProt P09619 33-1106).
T1 construct: not shown: N-terminal myc-tag and linker
As to the kind of experiment: flow cytometry, gH/gL/gO-sfGFP medium on Expi293F cells expressing PDGFRβ (negative control).

T1 sequence (P09619 33-1106): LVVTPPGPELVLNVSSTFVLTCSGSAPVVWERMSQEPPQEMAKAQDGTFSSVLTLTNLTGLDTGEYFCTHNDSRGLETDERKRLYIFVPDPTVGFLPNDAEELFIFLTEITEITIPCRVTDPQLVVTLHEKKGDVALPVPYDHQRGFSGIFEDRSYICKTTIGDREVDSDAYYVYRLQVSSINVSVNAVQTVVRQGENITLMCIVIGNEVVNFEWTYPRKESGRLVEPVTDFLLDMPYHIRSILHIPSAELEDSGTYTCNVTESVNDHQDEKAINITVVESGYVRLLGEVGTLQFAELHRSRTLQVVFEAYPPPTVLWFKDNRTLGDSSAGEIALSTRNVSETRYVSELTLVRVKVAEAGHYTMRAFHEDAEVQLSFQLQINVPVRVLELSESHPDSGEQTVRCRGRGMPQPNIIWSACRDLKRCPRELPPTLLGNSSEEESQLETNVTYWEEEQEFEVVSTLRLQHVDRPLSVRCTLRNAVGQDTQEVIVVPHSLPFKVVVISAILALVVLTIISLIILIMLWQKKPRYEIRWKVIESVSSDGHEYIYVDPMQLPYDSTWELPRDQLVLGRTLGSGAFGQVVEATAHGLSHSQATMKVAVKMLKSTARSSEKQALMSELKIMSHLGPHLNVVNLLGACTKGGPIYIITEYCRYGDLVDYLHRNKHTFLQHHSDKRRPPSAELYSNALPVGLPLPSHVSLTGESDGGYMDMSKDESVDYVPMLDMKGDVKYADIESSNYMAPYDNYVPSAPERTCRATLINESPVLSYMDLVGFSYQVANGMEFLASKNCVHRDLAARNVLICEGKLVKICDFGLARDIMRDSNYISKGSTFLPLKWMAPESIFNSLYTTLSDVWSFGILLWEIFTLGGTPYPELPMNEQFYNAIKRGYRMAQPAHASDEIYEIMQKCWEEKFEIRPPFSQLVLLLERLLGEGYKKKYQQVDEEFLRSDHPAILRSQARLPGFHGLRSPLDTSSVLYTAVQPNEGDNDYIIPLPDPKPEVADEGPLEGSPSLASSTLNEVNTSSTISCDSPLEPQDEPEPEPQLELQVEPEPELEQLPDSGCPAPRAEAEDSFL

B1: soluble HCMV glycoprotein trimer gH/gL/gO-sfGFP from strain TB40/E (other)
chain 1: […]
chain 2: VAVSVAPTAAEKVPAECPELTRRCLLGEVFQGDKYESWLRPLVNVTGRNGPLSQLIRYRPVTPEAANSVLLDDAFLDTLALLYNNPDQLRALLTLLSSDTAPRWMTVMRGYSECGDGSPAVYTCVDDLCRGYDLTRLSYGRSIFTEHVLGFELVPPSLFNVVVAIRNEATRTNRAVRLPVSTAAAPEGITLFYGLYNAVKEFCLRHQLDPPLLRHLDKYYAGLPPELKQTRVNLPAHSRYGPQAVDAR
chain 3: […]
notes: also called TB40/E trimer; CMV trimer; not shown: C-terminal FLAG tag; C-terminal superfolder GFP (Pedelacq et al. 2006)
For the molecule B1, the binding result was “no binding”.
